Here are results for 5 molecules from patent US20140087995A1 (published 2014).

T1: human amylin receptor (human calcitonin receptor co-expressed with RAMP-3; amylin 3(a) receptor) (human, UniProt P30988 25-474; O60896 24-148, limits assumed)
T1 construct: whole, on cells; Used as cell membranes prepared from Amylin 3(a)/CRE-luc BHK cells (Assay V), not as intact cells; also called hAmylin-R; hAmylinR
T1 sequence (looked up) 1: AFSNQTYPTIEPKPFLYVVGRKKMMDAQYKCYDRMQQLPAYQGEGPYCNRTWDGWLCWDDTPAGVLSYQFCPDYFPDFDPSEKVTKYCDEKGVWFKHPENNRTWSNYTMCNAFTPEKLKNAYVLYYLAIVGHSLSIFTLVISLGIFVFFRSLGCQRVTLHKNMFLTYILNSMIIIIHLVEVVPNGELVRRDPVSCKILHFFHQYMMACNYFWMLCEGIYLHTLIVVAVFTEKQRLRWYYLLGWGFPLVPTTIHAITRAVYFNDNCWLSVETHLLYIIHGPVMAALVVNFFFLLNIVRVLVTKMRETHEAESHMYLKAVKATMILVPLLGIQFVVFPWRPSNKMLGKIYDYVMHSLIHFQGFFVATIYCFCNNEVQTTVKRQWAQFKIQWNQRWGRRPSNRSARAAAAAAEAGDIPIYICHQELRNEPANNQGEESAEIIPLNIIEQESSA
T1 sequence (looked up) 2: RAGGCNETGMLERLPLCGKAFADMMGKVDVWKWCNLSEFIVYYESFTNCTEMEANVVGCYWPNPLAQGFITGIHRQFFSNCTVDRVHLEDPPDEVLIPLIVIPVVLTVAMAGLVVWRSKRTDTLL

T2: human calcitonin receptor (human, UniProt P30988 25-474)
T2 construct: whole, on cells; Used as cell membranes prepared from the transfected BHK cells (Assay VII), not as intact cells; also called hCTR; hCT
T2 sequence (looked up): T1 sequence (looked up) 1

B1: N^ε1-[2-[2-[2-[[(4S)-4-carboxy-4-(19-carboxynonadecanoylamino)butanoyl]amino]ethoxy]ethoxy]acetyl]-[Arg14,Arg17,Pro21,Pro27,Pro31]-h-amylin (peptide)
peptide: K([AEEA-γGlu-C20 diacid])CNTATCATQRLARFLRHSSPNFGAIPSSTPVGSNTY-NH2
modifications: disulfide 2-7; N-terminus assumed
SMILES: CC[C@H](C)[C@H](NC(=O)[C@H](C)NC(=O)CNC(=O)[C@H](Cc1ccccc1)NC(=O)[C@H](CC(N)=O)NC(=O)[C@@H]1CCCN1C(=O)[C@H](CO)NC(=O)[C@H](CO)NC(=O)[C@H](Cc1c[nH]cn1)NC(=O)[C@H](CCCNC(=N)N)NC(=O)[C@H](CC(C)C)NC(=O)[C@H](Cc1ccccc1)NC(=O)[C@H](CCCNC(=N)N)NC(=O)[C@H](C)NC(=O)[C@H](CC(C)C)NC(=O)[C@H](CCCNC(=N)N)NC(=O)[C@H](CCC(N)=O)NC(=O)[C@@H](NC(=O)[C@H](C)NC(=O)[C@@H]1CSSC[C@H](NC(=O)[C@@H](N)CCCCNC(=O)COCCOCCNC(=O)CC[C@H](NC(=O)CCCCCCCCCCCCCCCCCCC(=O)O)C(=O)O)C(=O)N[C@@H](CC(N)=O)C(=O)N[C@@H]([C@@H](C)O)C(=O)N[C@@H](C)C(=O)N[C@@H]([C@@H](C)O)C(=O)N1)[C@@H](C)O)C(=O)N1CCC[C@H]1C(=O)N[C@@H](CO)C(=O)N[C@@H](CO)C(=O)N[C@H](C(=O)N1CCC[C@H]1C(=O)N[C@H](C(=O)NCC(=O)N[C@@H](CO)C(=O)N[C@@H](CC(N)=O)C(=O)N[C@H](C(=O)N[C@@H](Cc1ccc(O)cc1)C(N)=O)[C@@H](C)O)C(C)C)[C@@H](C)O
notes: also called compound 64
B2: N^ε1-[2-[2-[2-[[(4S)-4-carboxy-4-(19-carboxynonadecanoylamino)butanoyl]amino]ethoxy]ethoxy]acetyl]-[Arg17,Pro21,Pro27,Pro28,Pro34]-h-amylin (peptide)
peptide: K([AEEA-γGlu-C20 diacid])CNTATCATQRLANFLRHSSPNFGAIPPSTNVGPNTY-NH2
modifications: disulfide 2-7; N-terminus assumed
SMILES: CC[C@H](C)[C@H](NC(=O)[C@H](C)NC(=O)CNC(=O)[C@H](Cc1ccccc1)NC(=O)[C@H](CC(N)=O)NC(=O)[C@@H]1CCCN1C(=O)[C@H](CO)NC(=O)[C@H](CO)NC(=O)[C@H](Cc1c[nH]cn1)NC(=O)[C@H](CCCNC(=N)N)NC(=O)[C@H](CC(C)C)NC(=O)[C@H](Cc1ccccc1)NC(=O)[C@H](CC(N)=O)NC(=O)[C@H](C)NC(=O)[C@H](CC(C)C)NC(=O)[C@H](CCCNC(=N)N)NC(=O)[C@H](CCC(N)=O)NC(=O)[C@@H](NC(=O)[C@H](C)NC(=O)[C@@H]1CSSC[C@H](NC(=O)[C@@H](N)CCCCNC(=O)COCCOCCNC(=O)CC[C@H](NC(=O)CCCCCCCCCCCCCCCCCCC(=O)O)C(=O)O)C(=O)N[C@@H](CC(N)=O)C(=O)N[C@@H]([C@@H](C)O)C(=O)N[C@@H](C)C(=O)N[C@@H]([C@@H](C)O)C(=O)N1)[C@@H](C)O)C(=O)N1CCC[C@H]1C(=O)N1CCC[C@H]1C(=O)N[C@@H](CO)C(=O)N[C@H](C(=O)N[C@@H](CC(N)=O)C(=O)N[C@H](C(=O)NCC(=O)N1CCC[C@H]1C(=O)N[C@@H](CC(N)=O)C(=O)N[C@H](C(=O)N[C@@H](Cc1ccc(O)cc1)C(N)=O)[C@@H](C)O)C(C)C)[C@@H](C)O
notes: also called compound 55
B3: N^ε1-[2-[2-[2-[[(4S)-4-carboxy-4-(19-carboxynonadecanoylamino)butanoyl]amino]ethoxy]ethoxy]acetyl]-[Arg17,Pro21,Pro27,Pro29,Pro31]-h-amylin (peptide)
peptide: K([AEEA-γGlu-C20 diacid])CNTATCATQRLANFLRHSSPNFGAIPSPTPVGSNTY-NH2
modifications: disulfide 2-7; N-terminus assumed
SMILES: CC[C@H](C)[C@H](NC(=O)[C@H](C)NC(=O)CNC(=O)[C@H](Cc1ccccc1)NC(=O)[C@H](CC(N)=O)NC(=O)[C@@H]1CCCN1C(=O)[C@H](CO)NC(=O)[C@H](CO)NC(=O)[C@H](Cc1c[nH]cn1)NC(=O)[C@H](CCCNC(=N)N)NC(=O)[C@H](CC(C)C)NC(=O)[C@H](Cc1ccccc1)NC(=O)[C@H](CC(N)=O)NC(=O)[C@H](C)NC(=O)[C@H](CC(C)C)NC(=O)[C@H](CCCNC(=N)N)NC(=O)[C@H](CCC(N)=O)NC(=O)[C@@H](NC(=O)[C@H](C)NC(=O)[C@@H]1CSSC[C@H](NC(=O)[C@@H](N)CCCCNC(=O)COCCOCCNC(=O)CC[C@H](NC(=O)CCCCCCCCCCCCCCCCCCC(=O)O)C(=O)O)C(=O)N[C@@H](CC(N)=O)C(=O)N[C@@H]([C@@H](C)O)C(=O)N[C@@H](C)C(=O)N[C@@H]([C@@H](C)O)C(=O)N1)[C@@H](C)O)C(=O)N1CCC[C@H]1C(=O)N[C@@H](CO)C(=O)N1CCC[C@H]1C(=O)N[C@H](C(=O)N1CCC[C@H]1C(=O)N[C@H](C(=O)NCC(=O)N[C@@H](CO)C(=O)N[C@@H](CC(N)=O)C(=O)N[C@H](C(=O)N[C@@H](Cc1ccc(O)cc1)C(N)=O)[C@@H](C)O)C(C)C)[C@@H](C)O
notes: also called compound 54
B4: N^ε1-[2-[2-[2-[[(4S)-4-carboxy-4-(19-carboxynonadecanoylamino)butanoyl]amino]ethoxy]ethoxy]acetyl]-[Arg17,Pro21,Pro27,Pro29,Pro34]-h-amylin (peptide)
peptide: K([AEEA-γGlu-C20 diacid])CNTATCATQRLANFLRHSSPNFGAIPSPTNVGPNTY-NH2
modifications: disulfide 2-7; N-terminus assumed
SMILES: CC[C@H](C)[C@H](NC(=O)[C@H](C)NC(=O)CNC(=O)[C@H](Cc1ccccc1)NC(=O)[C@H](CC(N)=O)NC(=O)[C@@H]1CCCN1C(=O)[C@H](CO)NC(=O)[C@H](CO)NC(=O)[C@H](Cc1c[nH]cn1)NC(=O)[C@H](CCCNC(=N)N)NC(=O)[C@H](CC(C)C)NC(=O)[C@H](Cc1ccccc1)NC(=O)[C@H](CC(N)=O)NC(=O)[C@H](C)NC(=O)[C@H](CC(C)C)NC(=O)[C@H](CCCNC(=N)N)NC(=O)[C@H](CCC(N)=O)NC(=O)[C@@H](NC(=O)[C@H](C)NC(=O)[C@@H]1CSSC[C@H](NC(=O)[C@@H](N)CCCCNC(=O)COCCOCCNC(=O)CC[C@H](NC(=O)CCCCCCCCCCCCCCCCCCC(=O)O)C(=O)O)C(=O)N[C@@H](CC(N)=O)C(=O)N[C@@H]([C@@H](C)O)C(=O)N[C@@H](C)C(=O)N[C@@H]([C@@H](C)O)C(=O)N1)[C@@H](C)O)C(=O)N1CCC[C@H]1C(=O)N[C@@H](CO)C(=O)N1CCC[C@H]1C(=O)N[C@H](C(=O)N[C@@H](CC(N)=O)C(=O)N[C@H](C(=O)NCC(=O)N1CCC[C@H]1C(=O)N[C@@H](CC(N)=O)C(=O)N[C@H](C(=O)N[C@@H](Cc1ccc(O)cc1)C(N)=O)[C@@H](C)O)C(C)C)[C@@H](C)O
notes: also called compound 56

What is called IC50 is the concentration at which inhibition is half-maximal.

Numbered stars: 1 amine (or outer) side, 2 acyl side, 3 side chain; on linkers, the order of the positions; unused ones are H or OH. Bridge positions count the residues as written; N and C are the ends. Side chains are listed from the residue outwards. Ends that are not written are not given here. * marks the point of attachment. C20 diacid = O=C(O)CCCCCCCCCCCCCCCCCCC(=O)*; γGlu = O=C(O)[C@H](CCC(=O)[*:2])N[*:1]; AEEA = NCCOCCOCC(=O)O

The target in the first assay is T1, human amylin receptor (human calcitonin …). Nature of the assay: ratio of hCTR binding IC50 to hAmylin-R binding IC50 (reference: human calcitonin receptor). As for the experimental part:
The resulting pellet was resuspended, homogenized and centrifuged (20.000 rpm, 15 min) in a buffer containing 20 mM Na-HEPES and 0.1 mM EDTA (pH 7.4, buffer 2). The resulting pellet was resuspended in buffer 2 and protein concentration was measured (BCA protein Assay, Pierce). The homogenate was kept cold during the whole procedure. The membranes were kept at −80° C. until use. The assay was performed in a 384 well Optiplate (PerkinElmer) in a total volume of 40 ul. Membranes were mixed with SPA beads. Final concentration of membranes 35 ng/μL final and SPA beads was 0.05 mg/well. Test-compounds were dissolved in DMSO and further diluted in assay buffer (50 mM Hepes, pH 7.4, 1 mM CaCl2, 5 mM MgCl₂, 0.1% OA and 0.02% Tween20). […] The final mixture was incubated with shaking at 400 rpm for 120 min at 25° C. prior to centrifugation (1500 rpm, 10 min). Samples were analyzed on TopCounter™ (Packard). The IC₅₀ was calculated using (one site binding competition analysis) GraphPad Prism5 as a measure of receptor affinity.
Membranes were prepared in the following way; the cells were rinsed with PBS and incubated with Versene for approximately 5 min before harvesting. The cells were flushed with PBS and the cell-suspension was centrifuged for 5 min at 1000 rpm. Cells were homogenized (Ultrathurrax) in a buffer containing 20 mM Na-HEPES and 10 mM EDTA (pH 7.4) and centrifuged at 20.000 rpm for 15 min. The resulting pellet was resuspended, homogenized and centrifuged (20.000 rpm, 15 min) in a buffer containing 20 mM Na-HEPES and 0.1 mM EDTA (pH 7.4, buffer 2). The resulting pellet was resuspended in buffer 2 and protein concentration was measured (BCA protein Assay, Pierce). The homogenate was kept cold during the whole procedure. The membranes were kept at −80° C. until use. Assay was performed in a 384 well Optiplate (PerkinElmer) in a total volume of 40 ul. Membranes were mixed with SPA beads.
Regarding B1, the “Ratio hCT/hAmylin binding” value turned out to be 126.
In the case of B2, the “Ratio hCT/hAmylin binding” value came out at 51.8.
As to B3, the “Ratio hCT/hAmylin binding” value came out at 146.
On to K([AEEA-γGlu-C20 diacid])CNTATCATQRLANFLRHSSPNFGAIPPSTPVGSNTY-NH2 (disulfide 2-7, also called compound 53), for which the “Ratio hCT/hAmylin binding” value is 104.
Consider B4, for which the “Ratio hCT/hAmylin binding” value worked out at 42.6.

The next assay addresses T2, human calcitonin receptor. As to the kind of experiment: SPA competition against 125I-calcitonin, membranes with human calcitonin receptor (Assay VII). Summed up:
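BHK hCTR membranes 35 ng/μL + SPA beads 0.05 mg/well; buffer 50 mM Hepes pH 7.4, 1 mM CaCl2, 5 mM MgCl₂, 0.1% OA, 0.02% Tween20. 120 min, 25° C., shaking. Scintillation count; IC50 by one-site binding competition.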
Consider B1, for which the IC50 turned out to be 56 nM.
On to B2, for which the IC50 turned out to be 2.17 nM.
Consider B3, for which the IC50 came out at 4.38 nM.
Take K([AEEA-γGlu-C20 diacid])CNTATCATQRLANFLRHSSPNFGAIPPSTPVGSNTY-NH2 (disulfide 2-7, also called compound 53): the half-inhibitory concentration (IC50) turned out to be 5.38 nM.
Consider B4, for which the IC50 amounted to 2.09 nM.
